Laboratory results from patent publication US20080219985A1.
Read-outs that look alike come from different tables or passages of the source.

Columns and labels:
Experiment in all cases: cell-based or functional assay
GPCR73a receptor (human) [1] = target: GPCR73a receptor (human) (UniProt Q8TCW9)
[2] = target: PROK2 receptor on Wky12-22 cells (rat aortic smooth muscle cells) (rat)
GPCR73a receptor (human) [3] = target: GPCR73a receptor (human) (UniProt Q8TCW9); remark: listed apart in the source
[4] = target: GPCR73b receptor (Homo sapiens (Human)) (UniProt Q8NFJ6)
Chain of GPCR73b receptor (Homo sapiens (Human)) (Q8NFJ6 whole entry): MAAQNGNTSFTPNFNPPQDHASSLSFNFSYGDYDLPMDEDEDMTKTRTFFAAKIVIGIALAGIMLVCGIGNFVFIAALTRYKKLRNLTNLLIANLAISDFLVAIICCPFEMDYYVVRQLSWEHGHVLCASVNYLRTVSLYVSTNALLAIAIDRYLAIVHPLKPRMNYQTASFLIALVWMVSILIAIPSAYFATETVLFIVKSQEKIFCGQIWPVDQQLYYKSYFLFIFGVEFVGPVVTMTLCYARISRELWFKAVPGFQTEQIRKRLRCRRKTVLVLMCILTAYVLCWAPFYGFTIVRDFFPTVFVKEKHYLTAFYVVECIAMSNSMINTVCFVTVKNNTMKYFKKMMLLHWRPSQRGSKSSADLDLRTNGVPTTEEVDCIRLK

[5] = target: GPCR73b receptor (Homo sapiens (Human)) (UniProt Q8NFJ6); remark: listed apart in the source

Chain of GPCR73a receptor (human) (Q8TCW9 whole entry): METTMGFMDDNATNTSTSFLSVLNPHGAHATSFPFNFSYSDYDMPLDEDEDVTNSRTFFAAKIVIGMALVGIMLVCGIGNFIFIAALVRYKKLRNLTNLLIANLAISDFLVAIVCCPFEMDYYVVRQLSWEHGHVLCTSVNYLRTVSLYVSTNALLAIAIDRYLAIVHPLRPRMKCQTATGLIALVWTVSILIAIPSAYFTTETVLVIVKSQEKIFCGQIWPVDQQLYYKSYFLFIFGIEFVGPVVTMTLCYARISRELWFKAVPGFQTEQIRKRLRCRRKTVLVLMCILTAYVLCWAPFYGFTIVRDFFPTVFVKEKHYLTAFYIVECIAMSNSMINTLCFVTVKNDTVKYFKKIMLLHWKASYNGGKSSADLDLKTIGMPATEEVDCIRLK

B1: human PROK1 purchased from PeproTech (ligand)
chain: AVITGACERDVQCGAGTCCAISLWLRGLRMCTPLGREGEECHPGSHKVPFFRKRKHHTCPCLPNLLCSRFPDGRYRCSMDLKNINF
- SRE-luciferase fold-induction at 1 ng/ml (fold-induction) (GPCR73a receptor (human) [1]): 0.95
- SRE-luciferase fold-induction at 3.2 ng/ml (fold-induction) (GPCR73a receptor (human) [1]): 1.3
- SRE-luciferase fold-induction at 10 ng/ml (fold-induction) (GPCR73a receptor (human) [1]): 2.6
- SRE-luciferase fold-induction at 32 ng/ml (fold-induction) (GPCR73a receptor (human) [1]): 7.2
- SRE-luciferase fold-induction at 320 ng/ml (fold-induction) (GPCR73a receptor (human) [1]): 20.5
- SRE-luciferase fold-induction at 1000 ng/ml (fold-induction) (GPCR73a receptor (human) [1]): 15
- EC50 of GROα secretion from Wky12-22 cells [2]: 2.94 ng/mL
- SRE-luciferase fold-induction at 1 ng/ml (fold-induction) (GPCR73a receptor (human) [3]): 1.2
- SRE-luciferase fold-induction at 3.2 ng/ml (fold-induction) (GPCR73a receptor (human) [3]): 1.6
- SRE-luciferase fold-induction at 10 ng/ml (fold-induction) (GPCR73a receptor (human) [3]): 2.5
- SRE-luciferase fold-induction at 32 ng/ml (fold-induction) (GPCR73a receptor (human) [3]): 5.8
- SRE-luciferase fold-induction at 100 ng/ml (fold-induction) (GPCR73a receptor (human) [3]): 11.4
- SRE-luciferase fold-induction at 320 ng/ml (fold-induction) (GPCR73a receptor (human) [3]): 24.4
- SRE-luciferase fold-induction at 1000 ng/ml (fold-induction) (GPCR73a receptor (human) [3]): 20
- SRE-luciferase fold-induction at 1 ng/ml (fold-induction) [4]: 1.1
- SRE-luciferase fold-induction at 3.2 ng/ml (fold-induction) [4]: 1.3
- SRE-luciferase fold-induction at 10 ng/ml (fold-induction) [4]: 1.8
- SRE-luciferase fold-induction at 32 ng/ml (fold-induction) [4]: 2.8
- SRE-luciferase fold-induction at 100 ng/ml (fold-induction) [4]: 5.6
- SRE-luciferase fold-induction at 320 ng/ml (fold-induction) [4]: 8.3
- SRE-luciferase fold-induction at 1000 ng/ml (fold-induction) [4]: 8.4
- SRE-luciferase fold-induction at 3.2 ng/ml (fold-induction) [5]: 1.4
- SRE-luciferase fold-induction at 32 ng/ml (fold-induction) [5]: 2.7
- SRE-luciferase fold-induction at 100 ng/ml (fold-induction) [5]: 4.1
- SRE-luciferase fold-induction at 320 ng/ml (fold-induction) [5]: 5.8
- SRE-luciferase fold-induction at 1000 ng/ml (fold-induction) [5]: 6.1
